Tests used:
Format in all cases: functional, cell-based
Details in all cases: Oocyte
[1] = substrate: CC(=O)C(=O)O; experiment: (§1) TP_TRANSPORTER: change in intracellular pH(pHi)value in Xenopus laevis oocytes
[2] = substrate: CC(C)C(=O)C(=O)O; experiment: as §1
[3] = substrate: CC(C)CC(=O)C(=O)O; experiment: as §1
[4] = substrate: C[C@@H](O)C(=O)O; experiment: as §1

B1: Monocarboxylate transporter 1 (Rattus norvegicus), P53987 (protein)
chain: MPPAIGGPVGYTPPDGGWGWAVVVGAFISIGFSYAFPKSITVFFKEIEIIFSATTSEVSWISSIMLAVMYAGGPISSILVNKYGSRPVMIAGGCLSGCGLIAASFCNTVQELYFCIGVIGGLGLAFNLNPALTMIGKYFYKKRPLANGLAMAGSPVFLSTLAPLNQAFFGIFGWRGSFLILGGLLLNCCVAGSLMRPIGPQQGKVEKLKSKESLQEAGKSDANTDLIGGSPKGEKLSVFQTVNKFLDLSLFTHRGFLLYLSGNVVMFFGLFTPLVFLSNYGKSKHFSSEKSAFLLSILAFVDMVARPSMGLAANTRWIRPRVQYFFAASVVANGVCHLLAPLSTTYVGFCIYAGVFGFAFGWLSSVLFETLMDLVGPQRFSSAVGLVTIVECCPVLLGPPLLGRLNDMYGDYKYTYWACGVILIIAGLYLFIGMGINYRLVAKEQKAEEKKRDGKEDETSTDVDEKPKKTMKETQSPAPLQNSSGDPAEEESPV
For B1, the Km [1] was 1010 µM, the Km [2] was 1250 µM and the Km [3] was 670 µM. The Km [4] was 3500 µM.
